The subject of one experiment is FAK. In words: FN- or EGF-dependent FAK phosphorylation (WB). It is filed as cell-based. Conditions: tested at 10, 100, 1000 and 10,000 ng/mL. An excerpt: For WB analysis, cells were collected and lysed with IP lysis buffer described above. After boiled with SDS laemmli buffer, the samples were resolved with SDS-PAGE gel and immunoblotted with standard protocols.
FN is the major ligand for integrin α5β1 and αvβ1, and triggers integrin/FAK signal pathway after binding. FN was employed to evaluate the effects of Tinagl1 on the integrin/FAK pathway. […] Likewise, the activation of FAK by FN was attenuated in the cells overexpressing Tinagl1.

For a further experiment, the system named is SUM159-M1a tumor cells. In words: 3D in vitro tumor sphere growth assay. It is filed as cell-based, human. The method, then: To directly test the tumor-specific inhibitory effects of Tinagl1, a 3D in vitro tumor sphere growth assay was performed. Tinagl1-overexpressing SUM159-M1a tumor cells formed significant fewer and smaller spheres.
For experiment [1], the system named is primary tumors and lung metastases. The experiment can be described thus: IHC staining of tumor samples from treatment groups (Ki67, Casp3, CD31, α-SMA). It is filed as in vivo, NSG female mice. How it is done: FIGS. 17F-17I are graphs quantifying positives cells per field where primary tumors were collected from indicated treatment groups from FIG. 17D and then subjected to IHC staining with indicated antibodies, including % Ki67^+ (17F), % Casp3^+ (17G), % CD31^+ (17H), and % α-SMA^+ (17I).
TIC staining was performed as previously described (Wan et al., 2014). Briefly, Paraffin-embedded primary tumor or lung samples were sliced into 4 μm thickness. The slides were baked overnight at 60° C. Next, the tissue slides were washed with PBS after deparaffinization and hydration and then boiled in citrate buffer at 100° C. for 40 min. After treated with 3% H2O2 for 30 min to block endogenous peroxidase, slides were incubated at 4° C. overnight with Ki67 (Leica Biosystem, Ki67-MM1-L-CE-S), cleaved caspase-3 (Cell signaling, 9661S), p-EGFR (Cell signaling, 3777), p-FAK (Cell signaling, 8556), CD31 (Cell signaling, 77699), -SMA (Sigma, A5228), or Tinagl1 (Sigma, HPA048695) antibodies. Following washes with PBS, slides were then incubated with HRP-conjugated goat anti-rabbit or mouse secondary antibody (Genetech) for 30 min at room temperature. Sections were stained by DAB and then counterstained with Gill hematoxylin according to manufacturer's instructions.

In experiment [2] the target is T1, EGFR extracellular domain recombinant protein (Homo sapiens, UniProt P00533).
T1 construct: EGFR extracellular domain recombinant protein was purchased from Novoprotein (CI61); purchased Novoprotein CI61
The experiment can be described thus: IP between recombinant Tinagl1 and recombinant His-tagged EGFR protein. The note with it: 5 μg each protein in PBS, IP with His antibody. The format is binding. The method, then:
FIG. 13B is an image of a WB assay where 5 μg each of recombinant His-tagged EGFR protein and recombinant Tinagl1 protein were added into 1.5 ml of PBS. 100 μl of combined solution was transferred to a new tube and served as input, and the rest was split into two tubes and IP with 2 μg of IgG or His antibody respectively; the IP samples were washed with PBS and analyzed with WB.
Immunoprecipitation (IP) and western blotting (WB) analysis. For an IP experiment, cells were collected in 1.5 ml EP tube when they reached to 100% confluency in 10 or 15 cm dish as indicated. 1 ml of IP lysis buffer (20 mM Tris pH7.4, 0.15 M NaCl, 1 mM EDTA, 1 mM EGTA, 1% Tx-100) with complete protease inhibitor cocktail (Roche, 14493900) was added and put on ice for 20 min. Meanwhile, culture media was 100× concentrated and mixed with the cell lysates. The samples were centrifuged, 100 μl of the supernatant was transferred to a new tube as input, and the rest was incubated with 2 μg of IgG, anti-HA, anti-Myc, anti-Integrin subunit β1, anti-Integrin subunit α5 or anti-EGFR (as indicated in each experiment) overnight at 4° C. (recombinant proteins may be added at this step as indicated in each experiment). 30 μL of protein A/G agarose beads (Santa Cruz, sc-2003) was then added in each sample for another 2 hours at 4° C. the next day. […] The IP samples were washed with PBS and analyzed with WB. […]

The subject of another experiment is SUM159-M1a. In words: SUM159-M1a orthotopic tumors, single or combined agent treatment. The format is in vivo, NSG female mice. Conditions: SUM159-M1a model. How it is done: FIG. 17D is an image of WB analyses where NSG female mice were injected with 10^4 M1a cells by MFP injection, and treated with the indicated reagents twice per week when tumors reached to 2 mm in diameter, then after 5 weeks of the treatments, the primary tumors of each group were collected and activation of EGFR and FAK in primary tumor of each group was tested by WB.
FIG. 17E is a graph illustrating tumor volumes of each treatment group from FIG. 17D.
For xenograft studies, 8-weeks immunocompromised NOD Scid Gamma (NSG) or immunocompetent FVB females were used. Cells were suspended in 10 μl of PBS for mammary gland injection (MFP), or were suspended in 100 μl of PBS for intravenous injection. For human patient-derived xenograft (PDX, HCL001, kindly provided by Dr. Alana Welm) study, we followed the standard protocol for PDX transplantation, maintenance and digestion of the tumors (DeRose et al., 2011). 2×10^4 cells were suspended in 10 μl of PBS and subjected to MFP injection. […] Primary tumors were quantified once per week via caliper measurement. All cell lines used for lung metastasis experiments were stably labeled with a firefly luciferase expressing vector and were monitored by weekly bioluminescent imaging (BLI). At protocol-defined endpoints, lungs were dissected and fixed in bouin's solution and the metastatic lesions were counted.

Results on one molecule are retold here after US20210379147A1, “METHOD AND SYSTEM FOR TREATING CANCER UTILIZING TINAGL1” (The Trustees of Princeton University, priority 2018, published 2021).

B1: r-Tinagl1: full length recombinant human Tinagl1 with 6×His tag at the C-terminus [SEQ ID NO.: 24], expressed in HEK293T cells (protein, listed as Homo sapiens)
chain: MWRCPLGLLLLLPLAGHLALGAQQGRGRRELAPGLHLRGIRDAGGRYCQEQDLCCRGRADDCALPYLGAICYCDLFCNRTVSDCCPDFWDFCLGVPPPFPPIQGCMHGGRIYPVLGTYWDNCNRCTCQENRQWQCDQEPCLVDPDMIKAINQGNYGWQAGNHSAFWGMTLDEGIRYRLGTIRPSSSVMNMHEIYTVLNPGEVLPTAFEASEKWPNLIHEPLDQGNCAGSWAFSTAAVASDRVSIHSLGHMTPVLSPQNLLSCDTHQQQGCRGGRLDGAWWFLRRRGVVSDHCYPFSGRERDEAGPAPPCMMHSRAMGRGKRQATAHCPNSYVNNNDIYQVTPVYRLGSNDKEIMKELMENGPVQALMEVHEDFFLYKGGIYSHTPVSLGRPERYRRHGTHSVKITGWGEETLPDGRTLKYWTAANSWGPAWGERGHFRIVRGVNECDIESFVLGVWGRVGMEDMGHHVDHHHHHH
modifications: C-terminal 6xHis tag
Consider B1, for which the “FN-dependent activation of FAK signaling (FAK phosphorylation at Tyr397)” value with FAK is given as “significantly reduced FN-dependent activation of FAK signaling”. Also, the “number and size of tumor spheres” value in the experiment on SUM159-M1a tumor cells is “reduced the number and size of tumor spheres”. The “CD31+ endothelium” value in experiment [1] (primary and lung metastasis) was “significantly reduced”. Moreover, in experiment [1] (primary tumor and lung metastatic nodules), the “tumor cell proliferation (Ki67 staining)” value was “strong anti-proliferative effects on both primary tumors and lung metastases”. Besides, the “direct interaction with EGFR” value in experiment [2] is “confirmed the direct interaction”. Also, the lung metastasis result with SUM159-M1a is “stronger effect than single treatment of Erlotinib”.
